From publication doi:10.1101/2021.08.20.457142

B1: MKK6 D-site peptide / p38-alpha (MAPK14) L195A, full length (parent complex)
chain 1: SQSKGKKRNPGLKIPKEAFEQP
chain 2: MSQERPTFYRQELNKTVWEVPERYQNLSPVGSGAYGSVCAAFDTKTGHRVAVKKLSRPFQSIIHAKRTYRELRLLKHMKHENVIGLLDVFTPARSLEEFNDVYLVTHLMGADLNNIVKCQKLTDDHVQFLIYQILRGLKYIHSADIIHRDLKPSNLAVNEDCELKILDFGLARHTDDEMTGYVATRWYRAPEIMANWMHYNQTVDIWSVGCIMAELLTGRTLFPGTDHIDQLKLILRLVGTPGAELLKKISSESARNYIQSLAQMPKMNFANVFIGANPLAVDLLEKMLVLDSDKRITAAQALAHAYFAQYHDPDDEPVAEPYDQSFESRDFLIDEWKSLTYDEVISFVPPPLDQEEMES

Variants of: B1

Row | Variant | screen value
1 | chain 1 SQSKIKKRNPGLKIPKEAFEQP [chain 1 G5I] | 2.27 Z-score of the enrichment rate within one screen of 711 sequences
2 | chain 1 SQSKPKKRNPGLKIPKEAFEQP [chain 1 G5P] | 1.65 Z-score of the enrichment rate within one screen of 711 sequences
3 | chain 1 SQSKYKKRNPGLKIPKEAFEQP [chain 1 G5Y] | 2 Z-score of the enrichment rate within one screen of 711 sequences
4 | chain 1 SQSKRKKRNPGLKIPKEAFEQP [chain 1 G5R] | 3.17 Z-score of the enrichment rate within one screen of 711 sequences
5 | chain 1 SQSKEKKRNPGLKIPKEAFEQP [chain 1 G5E] | 0.392 Z-score of the enrichment rate within one screen of 711 sequences
6 | chain 1 SQSKAKKRNAGLKIPKEAFEQP [chain 1 G5A, chain 1 P10A] | 0.354 Z-score of the enrichment rate within one screen of 711 sequences
7 | chain 1 SQSKGKKRNPGAKIAKEAFEQP [chain 1 L12A, chain 1 P15A] | -0.373 Z-score of the enrichment rate within one screen of 711 sequences
8 | chain 1 SQSKGKKRAPGAKIPKEAFEQP [chain 1 N9A, chain 1 L12A] | -0.96 Z-score of the enrichment rate within one screen of 711 sequences
9 | chain 1 SQSKGKNRNPGLKIPKEAFEQP [chain 1 K7N] | 1.02 Z-score of the enrichment rate within one screen of 711 sequences
10 | chain 1 SQSKGKPRNPGLKIPKEAFEQP [chain 1 K7P] | 0.368 Z-score of the enrichment rate within one screen of 711 sequences
11 | chain 1 SQSKGKYRNPGLKIPKEAFEQP [chain 1 K7Y] | 0.574 Z-score of the enrichment rate within one screen of 711 sequences
12 | chain 1 SQSKGKIRNPGLKIPKEAFEQP [chain 1 K7I] | 0.69 Z-score of the enrichment rate within one screen of 711 sequences
13 | chain 1 SQSKGKRRNPGLKIPKEAFEQP [chain 1 K7R] | 2.22 Z-score of the enrichment rate within one screen of 711 sequences
14 | chain 1 SQSKGKKRNAGAKIPKEAFEQP [chain 1 P10A, chain 1 L12A] | -0.884 Z-score of the enrichment rate within one screen of 711 sequences
15 | chain 1 SQSAGKKRNPGLAIPKEAFEQP [chain 1 K4A, chain 1 K13A] | -0.724 Z-score of the enrichment rate within one screen of 711 sequences
16 | chain 1 SQSKAAKRNPGLKIPKEAFEQP [chain 1 G5A, chain 1 K6A] | 1.13 Z-score of the enrichment rate within one screen of 711 sequences
17 | chain 1 SQSKGKARAPGLKIPKEAFEQP [chain 1 K7A, chain 1 N9A] | 0.105 Z-score of the enrichment rate within one screen of 711 sequences
18 | chain 1 SQSKGAKRAPGLKIPKEAFEQP [chain 1 K6A, chain 1 N9A] | -0.245 Z-score of the enrichment rate within one screen of 711 sequences
19 | chain 1 SQSAGKKRNPGLKIAKEAFEQP [chain 1 K4A, chain 1 P15A] | 1.47 Z-score of the enrichment rate within one screen of 711 sequences
20 | chain 1 SQSKGKKRNPGLKIPYEAFEQP [chain 1 K16Y] | -0.107 Z-score of the enrichment rate within one screen of 711 sequences
21 | chain 1 SQSKGKKRNPGLKIPSEAFEQP [chain 1 K16S] | 0.134 Z-score of the enrichment rate within one screen of 711 sequences
22 | chain 1 SQSKGKKRNPGLKIPFEAFEQP [chain 1 K16F] | 0.506 Z-score of the enrichment rate within one screen of 711 sequences
23 | chain 1 SQSKGKKRNPGLKIPHEAFEQP [chain 1 K16H] | 0.315 Z-score of the enrichment rate within one screen of 711 sequences
24 | chain 1 SQSKGKKRNPGLKIPREAFEQP [chain 1 K16R] | 1.75 Z-score of the enrichment rate within one screen of 711 sequences
25 | chain 1 SQSKGKKRNPGLKIPVEAFEQP [chain 1 K16V] | 0.706 Z-score of the enrichment rate within one screen of 711 sequences
26 | chain 1 SQSKGKAANPGLKIPKEAFEQP [chain 1 K7A, chain 1 R8A] | -0.694 Z-score of the enrichment rate within one screen of 711 sequences
27 | chain 1 SQSAGKKRNAGLKIPKEAFEQP [chain 1 K4A, chain 1 P10A] | -0.0905 Z-score of the enrichment rate within one screen of 711 sequences
28 | chain 1 SQSKGKKRNPGLKIDKEAFEQP [chain 1 P15D] | 0.934 Z-score of the enrichment rate within one screen of 711 sequences

More lines, now with the values ahead:

Row | screen value | Variant
29 | 0.178 Z-score of the enrichment rate within one screen of 711 sequences | chain 1 SQSKGKKWNPGLKIPKEAFEQP [chain 1 R8W]
30 | -0.189 Z-score of the enrichment rate within one screen of 711 sequences | chain 1 SQSKGKKQNPGLKIPKEAFEQP [chain 1 R8Q]
31 | -0.0927 Z-score of the enrichment rate within one screen of 711 sequences | chain 1 SQSKGKKVNPGLKIPKEAFEQP [chain 1 R8V]
32 | -0.0227 Z-score of the enrichment rate within one screen of 711 sequences | chain 1 SQSKGKKPNPGLKIPKEAFEQP [chain 1 R8P]
33 | 0.775 Z-score of the enrichment rate within one screen of 711 sequences | chain 1 SQSKGKKFNPGLKIPKEAFEQP [chain 1 R8F]
34 | 1.16 Z-score of the enrichment rate within one screen of 711 sequences | chain 1 SQSKGKKKNPGLKIPKEAFEQP [chain 1 R8K]
35 | -0.084 Z-score of the enrichment rate within one screen of 711 sequences | chain 1 SQSKGKKGNPGLKIPKEAFEQP [chain 1 R8G]
36 | -1.04 Z-score of the enrichment rate within one screen of 711 sequences | chain 1 SQSKGKKANPGLAIPKEAFEQP [chain 1 R8A, chain 1 K13A]
37 | 1.56 Z-score of the enrichment rate within one screen of 711 sequences | chain 1 SQAKGKKRNPGLKIPKEAFEQP [chain 1 S3A]
38 | 1.81 Z-score of the enrichment rate within one screen of 711 sequences | chain 1 SQQKGKKRNPGLKIPKEAFEQP [chain 1 S3Q]
39 | 1.82 Z-score of the enrichment rate within one screen of 711 sequences | chain 1 SQYKGKKRNPGLKIPKEAFEQP [chain 1 S3Y]
40 | 2.21 Z-score of the enrichment rate within one screen of 711 sequences | chain 1 SQMKGKKRNPGLKIPKEAFEQP [chain 1 S3M]
41 | 2.3 Z-score of the enrichment rate within one screen of 711 sequences | chain 1 SQRKGKKRNPGLKIPKEAFEQP [chain 1 S3R]
42 | 1.64 Z-score of the enrichment rate within one screen of 711 sequences | chain 1 SQGKGKKRNPGLKIPKEAFEQP [chain 1 S3G]
43 | 1.74 Z-score of the enrichment rate within one screen of 711 sequences | chain 1 SQTKGKKRNPGLKIPKEAFEQP [chain 1 S3T]
44 | 1.56 Z-score of the enrichment rate within one screen of 711 sequences | chain 1 SQHKGKKRNPGLKIPKEAFEQP [chain 1 S3H]
45 | 0.627 Z-score of the enrichment rate within one screen of 711 sequences | chain 1 SQSKGKKRNPGLKIWKEAFEQP [chain 1 P15W]
46 | 3.1 Z-score of the enrichment rate within one screen of 711 sequences | chain 1 SQSKGKKRNPGLKIVKEAFEQP [chain 1 P15V]
47 | 1.61 Z-score of the enrichment rate within one screen of 711 sequences | chain 1 SQSKGKKRNPGLKIIKEAFEQP [chain 1 P15I]
48 | 1.18 Z-score of the enrichment rate within one screen of 711 sequences | chain 1 SQSKGKKRNPGLKIHKEAFEQP [chain 1 P15H]
49 | 2.36 Z-score of the enrichment rate within one screen of 711 sequences | chain 1 SQSKGKKRNPGLKISKEAFEQP [chain 1 P15S]
50 | 1.84 Z-score of the enrichment rate within one screen of 711 sequences | chain 1 SQSKGKKRNPGLKIMKEAFEQP [chain 1 P15M]
51 | 0.909 Z-score of the enrichment rate within one screen of 711 sequences | chain 1 SQSKGKKRNPGLKIQKEAFEQP [chain 1 P15Q]
